± gives the uncertainty stated by the source.
Test: self-splicing fitness, log relative to wild type (ln ratio); higher = more splicing; Tetrahymena group I intron in knt gene, E. coli kanamycin selection, DiMSum; sequences stand for … in CUCUCU…GGAGGGAAAAGUUAUCAGGCAUGCACCUGGUAGCUAGUCUUUAAACCAAUAGAUUGCAUCGGUUUAAAAGGCAAGACCGUCAAAUUGCGGGAAAGGGGUCAACAGCCGUUCAGUACCAAGUCUCAGGGGAAACUUUGAGAUGGCCUUGCAAAGGGUAUGGUAAUAAGCUGACGGACAUGGUCCUAACCACGCAGCCAAGUCCUAAGUCAACAGAUCUUCUGUUGAUAUGGAUGCAGUUCACAGACUAAAUGUCGGUCGGGGAAGAUGUAUUCUUCUCAUAAGAUAUAGUCGGACCUCUCCUUAAUGGGAGCUAGCGGAUGAAGUGAUGCAACACUGGAGCCGCUGGGAACUAAUUUGUAUGCGAAAGUAUAUUGAUUAGUUUUGGAGUACUCGUGGUCG
Procedure, shortened: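 Pooled colonies went to amplicon sequencing on an Illumina HiSeq 2500 after six replicate transformations. The plates were LB agar with 100 μg/mL carbenicillin, 50 μM IPTG and 0.2% rhamnose, with or without 25 μg/mL kanamycin, incubated overnight at 37°C or 30°C. The E. coli BL21(DE3) library had all eight P1ex-region intron nucleotides randomised, the intron placed in the knt kanamycin-resistance gene on pET-22b(+). DiMSum fitness is the error-weighted combination of replicate fold changes, kanamycin against none, normalised to wild type.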

| Sequence | self-splicing fitness (ln) (30 °C) | self-splicing fitness (ln) (37 °C) |
| --- | --- | --- |
| AAAAAGCAAUAUUACGACAU | 0.00477 ± 0.011 | 0.11 ± 0.032 |
| AAAAAGCAAUAUUACGACUC | 0.0755 ± 0.088 | 0.373 ± 0.11 |
| AAAAAGCAAUAUUACGACUG | -1.14 ± 0.098 | -0.0274 ± 0.11 |
| AAAAAGCAAUAUUACGAGAU | -2.85 ± 0.13 | -1.86 ± 0.2 |
| AAAAAGCAAUAUUACGAGGC | -4.09 ± 0.33 | -2.57 ± 0.32 |
| AAAAAGCAAUAUUACGAGUU | -1.33 ± 0.065 | -0.488 ± 0.07 |
| AAAAAGCAAUAUUACGAUAC | -2.28 ± 0.16 | -0.696 ± 0.13 |
| AAAAAGCAAUAUUACGCAUA | -1.5 ± 0.11 | -0.715 ± 0.1 |
| AAAAAGCAAUAUUACGCCGC | -2.19 ± 0.43 | -2.01 ± 0.33 |
| AAAAAGCAAUAUUACGCGUA | -1.61 ± 0.083 | -0.153 ± 0.08 |
| AAAAAGCAAUAUUACGCUUU | -4.64 ± 0.27 | -2.32 ± 0.19 |
| AAAAAGCAAUAUUACGGCCU | -0.199 ± 0.069 | 0.253 ± 0.095 |
| AAAAAGCAAUAUUACGUACU | 0.142 ± 0.054 | 0.151 ± 0.077 |
| AAAAAGCAAUAUUACGUAGG | -1.7 ± 0.093 | -1.66 ± 0.11 |
| AAAAAGCAAUAUUACGUCAG | -2.75 ± 0.15 | -1.14 ± 0.13 |
| AAAAAGCAAUAUUACGUGGA | -2.42 ± 0.1 | -1.86 ± 0.1 |
| AAAAAGCAAUAUUACGUGGC | -3.59 ± 0.21 | -1.59 ± 0.14 |
| AAAAAGCAAUAUUACGUUCG | -0.479 ± 0.078 | -1.04 ± 0.1 |
| AAAAAGCAAUAUUACGUUGU | -3.71 ± 0.15 | -2.01 ± 0.14 |
| AAACAGCAAUAUUACGAAAA | -2.95 ± 0.15 | -1.8 ± 0.14 |
| AAACAGCAAUAUUACGAAUC | -4.43 ± 0.46 | -1.54 ± 0.22 |
| AAACAGCAAUAUUACGACGA | -1.32 ± 0.096 | 0.0122 ± 0.099 |
| AAACAGCAAUAUUACGACGC | -1.43 ± 0.081 | -0.718 ± 0.096 |
| AAACAGCAAUAUUACGAGGA | -4 ± 0.26 | -1.97 ± 0.13 |
| AAACAGCAAUAUUACGAGUG | -2.71 ± 0.075 | -1.8 ± 0.074 |
| AAACAGCAAUAUUACGAUAG | -2.76 ± 0.1 | -2.14 ± 0.12 |

| Sequence | self-splicing fitness (ln) (30 °C) | self-splicing fitness (ln) (37 °C) |
| --- | --- | --- |
| AAACAGCAAUAUUACGAUUU | -0.279 ± 0.053 | 0.219 ± 0.071 |
| AAACAGCAAUAUUACGCAAC | -3.6 ± 0.29 | -1.93 ± 0.17 |
| AAACAGCAAUAUUACGCACU | -0.221 ± 0.079 | 0.0967 ± 0.091 |
| AAACAGCAAUAUUACGCAGU | -3.42 ± 0.15 | -1.44 ± 0.12 |
| AAACAGCAAUAUUACGCGCA | -0.282 ± 0.081 | -0.19 ± 0.087 |
| AAACAGCAAUAUUACGCGCC | -1.13 ± 0.1 | -0.456 ± 0.12 |
| AAACAGCAAUAUUACGGACU | -0.635 ± 0.097 | -0.406 ± 0.12 |
| AAACAGCAAUAUUACGGGAG | -3.34 ± 0.13 | -2.66 ± 0.14 |
| AAACAGCAAUAUUACGGUAC | -3.52 ± 0.2 | -2.75 ± 0.26 |
| AAACAGCAAUAUUACGUACG | -2.54 ± 0.11 | -0.985 ± 0.11 |
| AAACAGCAAUAUUACGUAUG | -2.03 ± 0.094 | -1.31 ± 0.11 |
| AAACAGCAAUAUUACGUCAC | -4.1 ± 0.23 | -2.59 ± 0.2 |
| AAACAGCAAUAUUACGUGAG | -0.858 ± 0.04 | -0.552 ± 0.064 |
| AAAGAGCAAUAUUACGAAUA | -1.42 ± 0.35 |  |
| AAAGAGCAAUAUUACGAAUC | -3.27 ± 0.24 | -2.7 ± 0.26 |
| AAAGAGCAAUAUUACGACAA | -2.27 ± 0.23 | -2.95 ± 0.38 |
| AAAGAGCAAUAUUACGACGG | -3.27 ± 0.29 | -2.83 ± 0.43 |
| AAAGAGCAAUAUUACGACUG | -3 ± 0.32 |  |
| AAAGAGCAAUAUUACGAGGG | -3.04 ± 0.27 | -2.34 ± 0.39 |
| AAAGAGCAAUAUUACGAUCG | -2.55 ± 0.12 | -1.29 ± 0.15 |
| AAAGAGCAAUAUUACGCCGU | -3.07 ± 0.48 | -1.74 ± 0.42 |
| AAAGAGCAAUAUUACGCGUG | -3.02 ± 0.14 | -1.79 ± 0.12 |
| AAAGAGCAAUAUUACGGAAU | -2.79 ± 0.19 | -2.57 ± 0.27 |
| AAAGAGCAAUAUUACGGAGC | -2.8 ± 0.39 |  |
| AAAGAGCAAUAUUACGGAUA | -2.75 ± 0.27 | -1.92 ± 0.3 |
| AAAGAGCAAUAUUACGGAUU | -0.754 ± 0.18 | -1.45 ± 0.17 |

| Sequence | self-splicing fitness (ln) (30 °C) | self-splicing fitness (ln) (37 °C) |
| --- | --- | --- |
| AAAGAGCAAUAUUACGGCAG | -4.02 ± 0.42 | -3.07 ± 0.29 |
| AAAGAGCAAUAUUACGGCCU | -2.16 ± 0.13 | -0.199 ± 0.13 |
| AAAGAGCAAUAUUACGGGGA | -2.48 ± 0.35 | -1.81 ± 0.28 |
| AAAGAGCAAUAUUACGUAAU | -2.16 ± 0.15 | 0.0244 ± 0.13 |
| AAAGAGCAAUAUUACGUCCA | -1.76 ± 0.33 | -1.93 ± 0.36 |
| AAAGAGCAAUAUUACGUCUC | -3.18 ± 0.29 | -1.47 ± 0.18 |
| AAAGAGCAAUAUUACGUGAC | -4.21 ± 0.21 | -2.62 ± 0.2 |
| AAAGAGCAAUAUUACGUGCA | -2.3 ± 0.14 | -1.19 ± 0.13 |
| AAAGAGCAAUAUUACGUUAG | -3.49 ± 0.15 | -3.11 ± 0.25 |
| AAAGAGCAAUAUUACGUUAU | -3.71 ± 0.25 | -2.49 ± 0.23 |
| AAAUAGCAAUAUUACGAAAA | -2.66 ± 0.35 | -1.47 ± 0.22 |
| AAAUAGCAAUAUUACGAACA | -0.981 ± 0.14 | -0.0486 ± 0.12 |
| AAAUAGCAAUAUUACGAAUC | -2.64 ± 0.18 | -2.29 ± 0.22 |
| AAAUAGCAAUAUUACGAGUG | -2.42 ± 0.12 | -0.435 ± 0.1 |
| AAAUAGCAAUAUUACGAUAC | -2.95 ± 0.22 | -2.64 ± 0.36 |
| AAAUAGCAAUAUUACGCAAC | -3.16 ± 0.37 | -1.53 ± 0.26 |
| AAAUAGCAAUAUUACGCCUA | -0.886 ± 0.13 | -0.23 ± 0.13 |
| AAAUAGCAAUAUUACGCGAU | -3.4 ± 0.2 | -1.47 ± 0.14 |
| AAAUAGCAAUAUUACGCGCU | -0.381 ± 0.15 | -0.606 ± 0.19 |
| AAAUAGCAAUAUUACGCGUU | -2.16 ± 0.087 | -1.22 ± 0.092 |
| AAAUAGCAAUAUUACGCUAC |  | -1.68 ± 0.3 |
| AAAUAGCAAUAUUACGCUAG | -1.55 ± 0.13 | -1 ± 0.15 |
| AAAUAGCAAUAUUACGGAGG | -3.39 ± 0.2 | -2.86 ± 0.26 |
| AAAUAGCAAUAUUACGGGCC | -2.49 ± 0.32 | -2.55 ± 0.41 |
| AAAUAGCAAUAUUACGGUAA | -2.14 ± 0.21 | -1.5 ± 0.16 |

— the supplement of paper PMC7877785
